Where a chain is given by its changes, count along the chain named.
B1: A11 (antibody, V domains shown)
VH: AVTLDESGGGLQTPGGALSLVCKASGFDFSSYGMGWMRQAPGKGLEYVAAIRNDGSWTGYGAAVKGHATISRDNGQSTVRLQLNNLRAEDTGTYYCAKTTGSRGGSIDAWGHGTEVIVS
VL: ASTQPSSVSANLGGTVEITCSGGGRYYYGWYQQKSPGSAPVTVIYANDKRPSDIPSRFSGSKSGSTGTLTITGVQAEDEAVYFCGSAETSSYVFGAGTTLTVL
notes: Chicken variable regions in a mouse chimeric antibody (IgG1); also called anti-PAD4 antibody A11
B2: H7 (antibody, V domains shown)
VH: B1 VH with D28T, S31T, G33A, H67R, S71L, N84S, T99Y, R103S, D108G
VL: ASTQPSSVSANPGGTVEITCSGGSGRYYYGWYQQKSPGSAPVTVIYSSTHRPSNIPSRFSGSKSGSTATLTITGVQAEDEAVYFCGTADSSSYVFGAGTTLTVL
notes: Chicken variable regions in a mouse chimeric antibody (IgG1); also called anti-PAD4 antibody H7
B3: G8 (antibody, V domains shown)
VH: B1 VH with D28T, S31T, G33A, H67R, S71L, N84S, T99Y, R103S, D108G
VL: ASTQPSSVSANLGGTVEITCSGGNRNYYYGWYQQKSPGSAPVTLIYANDKRPSNIPSRFSGSKSGSTGTLTITGVQAEDEAVYFCGTADTGKYVFGAGTTLTVL
notes: Chicken variable regions in a mouse chimeric antibody (IgG1); also called anti-PAD4 antibody G8
B4: G6 (antibody, V domains shown)
VH: B1 VH with D28T, G35E, M37V, H67R, N74D, V79L, G92A, R103S
VL: B1 VL with G14E, E17K, R25N, V43L, D53N, S86T, E88D, S90G, S91K
notes: Chicken variable regions in a mouse chimeric antibody (IgG1); also called anti-PAD4 antibody G6
B5: E9 (antibody, V domains shown)
VH: B1 VH with A17T, A24G, D28T, A62S, H67R, G92A, T100S, R103S, I107V
VL: B1 VL
notes: Chicken variable regions in a mouse chimeric antibody (IgG1); also called anti-PAD4 antibody E9
B6: G9 (antibody, V domains shown)
VH: B1 VH with D28T, S31T, G33A, H67R, S71L, N84S, T99Y, R103S, D108G
VL: B1 VL with S2V, S6A
notes: Chicken variable regions in a mouse chimeric antibody (IgG1); also called anti-PAD4 antibody G9

Target: T1, Ala mutant of TA0096, SEQ ID NO: 28
T1 peptide: EANMDDQWMQDEMEIGY
Assay: ELISA, coated peptide

Binder	OD 490/630 nm
B1	2
B2	1.95
B3	1.94
B4	1.99
B5	2
B6	1.96

Target: T2, Ala mutant of TA0096, SEQ ID NO: 32
T2 peptide: EENMDAQWMQDEMEIGY
Assay: ELISA, coated peptide

Binder	OD 490/630 nm
B2	0.033
B3	0.083
B4	0.035
B6	0.039

Target: T3, Ala mutant of TA0096, SEQ ID NO: 40
T3 peptide: EENMDDQWMQDEMAIGY
Assay: ELISA, coated peptide

Binder	OD 490/630 nm
B1	1.85
B2	1.86
B3	1.89
B4	1.86
B5	1.82
B6	1.88

Target: T4, Ala mutant of TA0096, SEQ ID NO: 41
T4 peptide: EENMDDQWMQDEMEAGY
Assay: ELISA, coated peptide

Binder	OD 490/630 nm
B1	1.85
B2	1.83
B3	1.85
B4	1.87
B5	1.8
B6	1.89

Target: T5, Ala mutant having 3-amino acid substitution, SEQ ID NO: 44
T5 peptide: AAAMDDQWMQDEMEIGY
Assay: ELISA, coated peptide

Binder	OD 490/630 nm
B1	1.98
B2	1.9
B3	1.9
B4	1.92
B5	1.9
B6	1.92

Target: T6, Ala mutant having 3-amino acid substitution, SEQ ID NO: 45
T6 peptide: EENAAAQWMQDEMEIGY
Assay: ELISA, coated peptide

Binder	OD 490/630 nm
B1	0.039
B2	0.016
B3	0.065
B4	0.018
B5	0.022
B6	0.019

Target: T7, Ala mutant having 3-amino acid substitution, SEQ ID NO: 46
T7 peptide: EENMDDAAAQDEMEIGY
Assay: ELISA, coated peptide

Binder	OD 490/630 nm
B1	0.043
B2	0.044
B4	0.083
B5	0.027
B6	0.131

Target: T8, Ala mutant having 3-amino acid substitution, SEQ ID NO: 47
T8 peptide: EENMDDQWMAAAMEIGY
Assay: ELISA, coated peptide

Binder	OD 490/630 nm
B1	1.25
B2	1.67
B3	1.86
B4	1.73
B5	1.34
B6	1.85

Target: full-length recombinant human or mouse PAD4 (species used for Table 7 and FIG. 7 not stated)
Assay: cell-based or functional assay

Binder	Relative citrullination activity
B1	64 relative to PBS = 100
B2	35 relative to PBS = 100
B3	63 relative to PBS = 100
B4	69 relative to PBS = 100
B5	59 relative to PBS = 100
B6	68 relative to PBS = 100

Target: T6, Ala mutant having 3-amino acid …
Assay: ELISA, 3-amino acid Ala mutants
Method: (§1) The epitope of each of A11 etc. was identified by alanine scan. Specifically, the following procedures (i) to (iii) were carried out. (i) Each amino acid residue of the antigen sequence (SEQ ID NO: 1) was replaced by another amino acid one by one, and 17 different Ala mutants (SEQ ID Nos: 27 to 43) were synthesized. (ii) The reactivity of each of the Ala mutants toward a test antibody was evaluated (ELISA).
(§2) Note that, as additional experiments, 6 different Ala mutants having 3-amino acid substitution (SEQ ID NOs: 44 to 49) were likewise examined in the experiments.

Binder	binding result
B1	no binding
B2	no binding
B3	no binding
B4	no binding
B5	no binding
B6	no binding

Target: T7, Ala mutant having 3-amino acid …
Assay: ELISA, 3-amino acid Ala mutants
Method: as §1, §2

Binder	binding result
B1	no binding
B2	no binding
B4	no binding
B5	no binding
B6	no binding

Target: T2, Ala mutant of TA0096, SEQ ID NO: 32
Assay: ELISA, alanine scan (position 345)
Method: as §1
(§3) The “96 pAb” designated in the table refers to antiserum as obtained by immunizing a chicken with TA0096 (SEQ ID NO: 1). The 96 pAb, which is an anti-PAD4 polyclonal antibody, can substantially keep the affinity toward PAD4 even if any of single amino acids of PAD4 is replaced.

Binder	binding result
B2	no binding
B3	no binding
B4	no binding
B6	no binding

Target: T9, Ala mutant of TA0096, SEQ ID NO: 34
T9 peptide: EENMDDQAMQDEMEIGY
Assay: ELISA, alanine scan (position 347)
Method: as §1, §3

Binder	binding result
B1	no binding
B2	no binding
B3	no binding
B4	no binding
B5	no binding
B6	no binding

Target: T10, Ala mutant of TA0096, SEQ ID NO: 35
T10 peptide: EENMDDQWAQDEMEIGY
Assay: ELISA, alanine scan (position 348)
Method: as §1, §3

Binder	binding result
B1	no binding
B2	no binding
B4	no binding
B5	no binding

Target: T11, full-length recombinant human PAD4 (human, UniProt Q9UM07 1-663)
T11 construct: Full-length recombinant; also called peptidylarginine deiminase 4
T11 sequence (Q9UM07 whole entry): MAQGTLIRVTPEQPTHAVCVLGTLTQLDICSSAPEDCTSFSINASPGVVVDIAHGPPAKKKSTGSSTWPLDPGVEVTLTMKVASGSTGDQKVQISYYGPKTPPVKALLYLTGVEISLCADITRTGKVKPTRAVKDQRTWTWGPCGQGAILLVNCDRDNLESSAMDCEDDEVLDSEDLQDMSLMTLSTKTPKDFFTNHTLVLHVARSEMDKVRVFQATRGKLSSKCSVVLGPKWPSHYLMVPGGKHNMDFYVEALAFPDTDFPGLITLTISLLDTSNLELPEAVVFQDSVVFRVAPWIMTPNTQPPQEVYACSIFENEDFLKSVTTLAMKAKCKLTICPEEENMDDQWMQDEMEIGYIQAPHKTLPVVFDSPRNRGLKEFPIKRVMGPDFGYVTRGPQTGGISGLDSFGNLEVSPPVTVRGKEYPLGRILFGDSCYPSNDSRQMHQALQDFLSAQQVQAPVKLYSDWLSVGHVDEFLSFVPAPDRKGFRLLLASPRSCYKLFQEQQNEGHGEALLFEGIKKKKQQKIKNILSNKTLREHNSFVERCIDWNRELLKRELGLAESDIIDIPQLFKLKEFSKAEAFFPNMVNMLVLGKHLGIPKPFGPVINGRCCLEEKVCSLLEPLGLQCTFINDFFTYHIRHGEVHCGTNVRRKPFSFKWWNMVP
Assay: ELISA, coated human PAD4; antibody 0.0002441 ug/mL

Binder	OD 490/630 nm
B1	0.206
B2	0.217
B3	0.184
B4	0.166
B5	0.176
B6	0.187

Target: T11, full-length recombinant human PAD4
Assay: ELISA, coated human PAD4; antibody 0.0009766 ug/mL

Binder	OD 490/630 nm
B1	0.511
B2	0.537
B3	0.544
B4	0.437
B5	0.489
B6	0.534

Target: T12, full-length recombinant mouse PAD4 (mouse, UniProt Q9Z183 1-666)
T12 construct: mature; Full-length recombinant
T12 sequence (Q9Z183 whole entry): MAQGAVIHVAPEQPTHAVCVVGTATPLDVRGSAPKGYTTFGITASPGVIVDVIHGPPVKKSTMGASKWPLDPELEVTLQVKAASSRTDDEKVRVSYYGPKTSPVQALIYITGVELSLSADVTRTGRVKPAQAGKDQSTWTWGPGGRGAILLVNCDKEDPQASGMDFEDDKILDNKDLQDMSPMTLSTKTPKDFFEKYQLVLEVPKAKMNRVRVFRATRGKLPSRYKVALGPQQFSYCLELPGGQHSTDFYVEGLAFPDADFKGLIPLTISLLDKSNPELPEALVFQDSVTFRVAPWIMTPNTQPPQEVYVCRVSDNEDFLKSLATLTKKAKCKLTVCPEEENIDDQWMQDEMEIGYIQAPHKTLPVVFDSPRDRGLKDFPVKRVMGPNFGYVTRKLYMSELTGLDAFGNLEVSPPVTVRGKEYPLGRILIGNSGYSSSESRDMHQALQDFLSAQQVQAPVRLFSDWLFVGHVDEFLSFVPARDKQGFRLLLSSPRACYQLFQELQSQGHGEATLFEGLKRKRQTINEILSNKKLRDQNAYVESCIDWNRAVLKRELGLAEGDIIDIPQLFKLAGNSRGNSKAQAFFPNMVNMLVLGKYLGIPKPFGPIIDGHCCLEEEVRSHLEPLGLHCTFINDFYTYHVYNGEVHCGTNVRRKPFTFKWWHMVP
Assay: ELISA, coated mouse PAD4; antibody 0.0039063 ug/mL

Binder	OD 490/630 nm
B1	1.07
B2	1.41
B3	1.42
B4	0.55
B5	0.956
B6	1.39
